Where two headings read alike, the source gives them in different places.
T1: mouse ECD-DDR1-Fc (mouse; human, UniProt Q03146 22-414)
T1 construct: also called mouse DDR1-ECD; wild-type mouse DDR1-ECD; not shown: human IgG1 Fc of the vector pFuse-hIgG1-Fc1 (Invivogen)
T1 sequence: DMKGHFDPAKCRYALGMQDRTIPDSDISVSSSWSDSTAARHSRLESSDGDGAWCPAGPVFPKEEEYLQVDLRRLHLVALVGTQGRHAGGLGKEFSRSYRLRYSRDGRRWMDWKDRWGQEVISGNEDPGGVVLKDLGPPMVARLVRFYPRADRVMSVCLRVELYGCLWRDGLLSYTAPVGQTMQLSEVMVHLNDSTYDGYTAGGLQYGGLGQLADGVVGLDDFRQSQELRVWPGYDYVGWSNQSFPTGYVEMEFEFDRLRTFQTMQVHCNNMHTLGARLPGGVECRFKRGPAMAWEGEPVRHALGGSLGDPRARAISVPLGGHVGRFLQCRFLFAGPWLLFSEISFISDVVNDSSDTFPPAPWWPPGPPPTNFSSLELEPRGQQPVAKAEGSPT

T2: mouse DDR1 stably expressed on HEK293 cells (mouse, UniProt Q03146 20-911)
T2 construct: whole, on cells; also called murine DDR1
T2 sequence (looked up): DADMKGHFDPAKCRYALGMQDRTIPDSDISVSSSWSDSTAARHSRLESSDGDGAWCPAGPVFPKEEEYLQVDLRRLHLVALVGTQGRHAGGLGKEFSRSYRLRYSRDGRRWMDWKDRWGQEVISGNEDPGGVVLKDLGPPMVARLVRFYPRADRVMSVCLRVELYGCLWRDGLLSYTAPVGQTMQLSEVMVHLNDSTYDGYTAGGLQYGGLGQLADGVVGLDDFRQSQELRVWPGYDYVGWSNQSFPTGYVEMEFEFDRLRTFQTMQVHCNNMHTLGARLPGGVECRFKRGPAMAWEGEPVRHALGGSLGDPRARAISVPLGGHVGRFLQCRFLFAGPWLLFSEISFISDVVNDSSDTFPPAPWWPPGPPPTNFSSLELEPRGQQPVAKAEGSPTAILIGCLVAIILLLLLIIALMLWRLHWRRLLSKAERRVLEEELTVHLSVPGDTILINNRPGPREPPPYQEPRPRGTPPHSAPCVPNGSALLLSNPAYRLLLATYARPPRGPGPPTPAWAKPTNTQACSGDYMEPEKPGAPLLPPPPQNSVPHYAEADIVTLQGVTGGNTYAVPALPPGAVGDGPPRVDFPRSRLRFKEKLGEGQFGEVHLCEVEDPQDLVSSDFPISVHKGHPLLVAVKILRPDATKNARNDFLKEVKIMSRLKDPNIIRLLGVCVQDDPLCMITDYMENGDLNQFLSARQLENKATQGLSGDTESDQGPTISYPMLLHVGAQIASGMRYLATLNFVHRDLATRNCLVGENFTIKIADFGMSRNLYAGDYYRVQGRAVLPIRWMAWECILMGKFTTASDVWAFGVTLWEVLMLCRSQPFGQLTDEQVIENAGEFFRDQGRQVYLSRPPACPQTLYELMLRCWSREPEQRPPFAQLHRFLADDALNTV


Experiments:
[1] = target: T3, DDR1ECD-Fc (R&D Systems, Catalog #2396-DR) (human, UniProt Q08345 21-416); experiment: ELISA
T3 construct: range 21-416; construct as described for the bought immunogen; also called human ECD-DDR1-Fc; Fc-ECD-DR1; not shown: human IgG1, Pro100-Lys330
T3 sequence (Q08345 other isoform, or with tags, fused parts or gaps limits assumed): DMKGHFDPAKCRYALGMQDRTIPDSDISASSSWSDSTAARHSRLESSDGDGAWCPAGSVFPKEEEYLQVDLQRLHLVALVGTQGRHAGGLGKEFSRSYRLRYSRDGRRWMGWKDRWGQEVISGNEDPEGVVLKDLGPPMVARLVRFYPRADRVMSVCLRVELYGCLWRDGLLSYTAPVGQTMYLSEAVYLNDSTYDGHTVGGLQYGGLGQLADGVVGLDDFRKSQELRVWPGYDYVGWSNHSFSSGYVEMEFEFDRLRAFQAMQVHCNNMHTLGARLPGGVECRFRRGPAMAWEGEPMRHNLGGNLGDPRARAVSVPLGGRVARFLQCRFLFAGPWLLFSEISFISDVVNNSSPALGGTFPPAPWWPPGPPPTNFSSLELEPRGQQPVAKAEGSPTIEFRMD

[2] = target: DDR1 endogenously expressed on human cancer cell lines (T47D, HCT-116, A431) (human) (UniProt Q08345); experiment: cell-based or functional assay
mouse ECD-DDR1-Fc = target: T1, mouse ECD-DDR1-Fc; experiment: ELISA, coated antigen, apparent KD
Procedure, shortened: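 Plates coated overnight at 4° C with 2 μg/mL purified tagged DDR1 ECD protein, BSA-blocked; serially diluted murine anti-DDR1 mAbs bound 1 hr at room temperature, detected with anti-mouse IgG-HRP and TMB (OD 450). Apparent KD taken as C-parameter of 4-parameter logistic fit of OD versus antibody concentration.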

[3] = target: human DDR1 (isoform B) stably expressed on HEK293 cells (human) (UniProt Q08345); experiment: flow cytometry, HEK293/human DDR1, normalized to empty-vector cells
[4] = target: T2, mouse DDR1 stably expressed on HEK293 …; experiment: flow cytometry, column without head (taken as HEK293/mouse DDR1)
Method: Additional monoclonal antibodies were obtained from individual hybridomas in Example 1 and were characterized for their properties.
Cells were cultured in DMEM with 10% FBS and 0.8 mg/mL hygromycin. When cells reached 60-80% confluence, they were centrifuged at 1,200 rpm for 5 minutes, suspended in FACS buffer (1×PBS, 1% BSA), and aliquoted into a 96-well plate at 1×10⁶ cells per well. The anti-DDR1 monoclonal antibodies or appropriate isotype controls at 2 μg per 1×10⁶ cells were added and incubated at 4° C. for 1 hr. The cells were washed twice with FACS buffer then stained with the anti-IgG-PE secondary antibody at 10 μL per well at 4° C. for 1 hr. The cells were washed again and measured for the MFI values or signals using flow cytometry (LSR Fortessa instrument, BD Biosciences). Background MFI signals from vector-only cells (i.e. no DDR1 or DDR2 expression) was subtracted from those of the cells treated with antibodies. Higher MFI values or signals indicated increased binding or specificity of the anti-DDR1 antibodies to the DDR1 on the cell surface.

[5] = target: DDR1 endogenously expressed on human cancer cell lines (T47D, HCT-116, A431) (human) (UniProt Q08345); experiment: cell-based or functional assay; remark: listed apart in the source
[6] = target: T2, mouse DDR1 stably expressed on HEK293 …; experiment: flow cytometry on transfected HEK293 cells

Binder | Kd [1] [nM] | EC50, DDR1 phospho-specific ELISA (T47D) [2] [nM] | EC50, cluster formation assay (A431 cells) [2] [nM] | Maximal inhibition, DDR1 phospho-specific ELISA (T47D) [2] [%] | NPI of cluster formation at 66 nM (A431 cells) [2] [%] | Kd (mouse ECD-DDR1-Fc) [nM] | MFI [3] [MFI] | MFI [4] [MFI] | EC50, DDR1 phospho-specific ELISA (T47D) [5] [nM] | EC50, cluster formation assay (A431 cells) [5] [nM] | Maximal inhibition, DDR1 phospho-specific ELISA (T47D) [5] [%] | binding result [6]
AB2039 (antibody, V domains shown, mouse hybridoma mAb; also called AB0039) VH: EVQLVESGGGLVQPGGSLKFSCAASGFTFSSYGMSWVRQTPDKRLELVAIINSHGFSTYYPDSVKGRFTISRDNAKNTLYLQMSSLKSEDTAIYYCARGGYGNYGMDYWGQGTSVTVSS VL: DIVLTQSPASLAVSLGQRATISCRASESVDSYGNSFMHWYQQKVGQPPKLLIFRASNIESGIPARFSGSGSRTDFTLTINSVEADDVATYYCQQSNEAPYTFGGGTKLEIKR | 0.346 | 0.43 | 0.93 | 100 | 103 | 2.37 | 8020 | 10500 | – | – | – | –
AB2004 (antibody, V domains shown, mouse hybridoma mAb) VH: DVHLQESGPDLVKPSQSLSLTCTVTDYSITSGYGWHWIRQFPGNKLEWMGYIHYGGSTKYNSSLKSRISITRDTSKNQFFLQLKSVTTDDTGTYYCATSGNYGFAYWGQGTLVTVSA VL: DIVLTQSPTSLAVSLGQRATMSCRASESVDDYGTSFMHWYQQKPGQPPKLLIYRASNLESGIPARFSGSGSRADFTLSINPVEPDDVATYYCQQSNEDPFTFGSGTKLEIKR | 0.154 | 0.43 | 2.28 | 100 | 110 | – | 14400 | 9500 | – | – | – | –
AB2010 (antibody, V domains shown, mouse hybridoma mAb) VH: QVQLKQSGPGLVQPSQSLSITCTVSGFSFTGYGIHWVRQSPGKGLEWLGVIWSGGITDYNAAFISRLSISMDSSKGQVFFKMNSLQANDTAIYYCARRSTTVVADYAMDYWGQGTSVTVSS VL: SIVMTQTPKFLLVSAGDRVTITCKASQSVSNDVAWYQQKPGQSPKLLIYYASNRYTGVPDRFTGSGYGTDFTFTINTVQAEDLAVYFCQQDYTSPLTFGAGTKLELKR | – | 0.63 | 4.84 | 100 | 108 | 33.7 | – | 7140 | – | – | – | –

Next, values leading:

Kd [1] [nM] | EC50, DDR1 phospho-specific ELISA (T47D) [2] [nM] | EC50, cluster formation assay (A431 cells) [2] [nM] | Maximal inhibition, DDR1 phospho-specific ELISA (T47D) [2] [%] | NPI of cluster formation at 66 nM (A431 cells) [2] [%] | Kd (mouse ECD-DDR1-Fc) [nM] | MFI [3] [MFI] | MFI [4] [MFI] | EC50, DDR1 phospho-specific ELISA (T47D) [5] [nM] | EC50, cluster formation assay (A431 cells) [5] [nM] | Maximal inhibition, DDR1 phospho-specific ELISA (T47D) [5] [%] | binding result [6] | Binder
0.374 | 0.39 | 1.82 | 100 | 123 | 10.9 | 7490 | 24200 | – | – | – | – | AB2078 (antibody, V domains shown, mouse hybridoma mAb) VH: EIQLQQSGPELVNPGASVKVSCKASGYSFTDYNMYWVKQSHGKSLEWIGYIDPYNGGTSYNQKFKGKATLTVDKSSSTAFMHLNSLTSEDSAVYYCAREYYGSRLWYFDVWGAGTAVTVSS VL: DIVMTQSPSSLAMSVGQKVTMSCKSSQSLLNRNNQKNYLAWYQQKPGQSPKLLVYFASTRESGVPDRFIGSGSGTDFTLTLSSVRAEDLAENFCQQHYSTPFTFGSGTRLEIKR
0.561 | – | – | – | – | – | 12500 | – | 0.72 | 2.03 | 100 | binds | AB2041 (antibody, V domains shown, mouse hybridoma mAb) VH: QVQLHQSGSELAKPGASVKMSCKASGYIFTTYWIHWLKQRPGQGLEWIGFINPDTDYTEYNQKFKDKATLTADKSSNTAYVQLSSLTSEDSAVYYCARGNYGYDGLVYWGLGTLVTVSA VL: SIVMTQTPKFLLVSAGDRVTITCKASQSVSTDVAWYQQKPGQSPKLLIYYASNRYTGVPDRFTGSGYGTDFTFTISTVQAEDLAVYFCQQDYNSYTFGGGTKLEIKR
0.287 | – | – | – | – | 1.19 | 6020 | 22800 | 0.52 | 4.18 | 100 | – | AB2092 (antibody, V domains shown, mouse hybridoma mAb) VH: QIQLVQSGPELKKSGETVKISCKASGYTFTDYGMNWVKQAPGKGLKWMGWINTYTGKSTYADDFKGRFAFSLETSASTTYLQITNLKNEDMATYFCARWADYFGSSYLFASWGQGTLVTVSA VL: DVLMTQTPLSLPVSLGDQASISCRSSQSIVHSDGNTYLEWYLQKPGQSPKLLIYKVSNRFSGVPDRFSGSGSGTDFTLKISRVEAEDLGIYYCFQGSHVPWTFGGGTKLEIKR

— US20140086913A1 (Gilead, published 2014)
